# Laboratory results reported in the RNAGym collection of RNA variant scans (doi:10.1073/pnas.2313332121).
# B1: TPR t1 (parent)
# chain: GACCAAUCUGCCCUCAGAGCUCGAGAACAUCUUCGGAUGCAGAGGAGGCAGGCUUCGGUGGCGCGAUAGCGCCAACGUCCUCAACCUCCAAUGCAUCCCACCACAUGAUGAUGCCUGAAGAGCCUUGGUUUUUUG
# Variants of: B1
# Assay: polymerase ribozyme fitness, log enrichment relative to wild type (log ratio); higher = more active; in vitro selection for triplet polymerase activity
# How it was run: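 Each subunit of a heterodimeric triplet polymerase ribozyme was mutagenized into a library by PCR, transcribed, and subjected to one round of in vitro selection, run in triplicate. Libraries were annealed with a biotinylated primer, the partner subunit and triplets, incubated frozen at −7 °C, and extended constructs were gel-excised, captured on streptavidin beads and recovered by RT-PCR. Input and output libraries were sequenced on Illumina, keeping genotypes with ≥10 input reads and ≥1 read per output. Fitness is log base 2 of genotype enrichment divided by wild-type enrichment, from inverse-variance-weighted replicate averages.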
row,Variant,polymerase ribozyme fitness (log ratio)
1,G93U C98U,-2.33
2,C89A G127C U133G,-4.42
3,C88G U112A,1.18
4,G93C C123A,-1.09
5,U87A U92G G93U C104A A111G C114U U130C,-7.15
6,C88G G113A,-1.99
7,C88G G113C,-2.74
8,C88U A91U C115G,-3.9
9,A90U C104A G113C,-3.66
10,G93C U132C,-1.62
11,C88A G113A,-1.6
12,A90G C99U U106C,-2.51
13,C88A U109C,-5.25
14,C88A U109A,-5.8
15,C89U G107A,-5.32
16,A91C C104A,-3.58
17,A90C,-1.08
18,A90U,-1.2
19,A90G,0.347
20,U87A U106G U125G,-2.01
21,C88U G107A,-6.88
22,G93A G122A,-1.4
23,C89G C97G,-6.08
24,C88A U125G,-1.18

row,Variant,polymerase ribozyme fitness (log ratio)
1,C88U C102U,-1.5
2,C89A U129C,-2.03
3,U92G C94U,-4.52
4,C88G A95C,-4.58
5,C89A C124G,-0.00331
6,U92G U125A,-2.96
7,C89U U129G,-1.72
8,C88U U116C,0.189
9,C88U U116A,-3.45
10,C89G G93C,-3.36
11,G93A G128U,-1.66
12,A91U C104A,-4.59
13,A91U C104U,-1.47
14,U87A U92A,-2.55
15,G93U G110U,-2.46
16,A91G G113C G120A,-3.31
17,G93A C97U G127C,-2.77
18,C89U C104U,0.00386
19,U87G G110A,-0.698
20,U87G G110U,-0.69
21,U92A A121U,-0.332
22,U92A A121G,-0.696
23,U87G A111C,1.16
24,C88G G113U U125C U132A,-3.76

row,Variant,polymerase ribozyme fitness (log ratio)
1,C88G U125G,-1.44
2,G93C G127C,-1.82
3,A90G C102A C124A,0.51
4,G93U A100U,-1.72
5,C88U G110A,-1.46
6,U87G U106A A108C,-2.16
7,A90C U106C U116G A119G U125G,-1.75
8,C88A C123G,1.69
9,C89U U133A,-0.271
10,C89A U106A G113C C123G,-1.57
11,A91C U112A,-0.47
12,U92A G113A U125C,-3.27
13,C88U C94U U129G,-1.48
14,C88A C104U G127A,-1.76
15,C89A G110C,-5.43
16,A90U U92C U96C,-2.06
17,A90G C102A G117A,-5.32
18,G93C G120A,1.58
19,A90G U112G U116C,-0.0889
20,C88A A100U C115U,-3.24
21,C89G C104U,-0.672
22,C89U A95U C115U,-2.59
23,A90C A95G,-0.983
24,U87A C102A,-2.11

row,Variant,polymerase ribozyme fitness (log ratio)
1,U87A A111U,-2.69
2,G93A C114A A119U G122C,-3.4
3,C88A U130G,-1.33
4,C88A U130A,-2.14
5,C88A C98A C124G,-3.46
6,U87C U129C,-0.143
7,A91C U96A A103U,-7.59
8,A90G A121C,1.62
9,C88G A91U U112A,-1.38
10,A90C C98U,-2.83
11,U92G A121C C123G,-0.349
12,A90U C98G C114G G117C C123U U126C,-5.73
13,G93A C98A,-5.11
14,G93A G120U,-0.0719
15,G93A G120A,0.446
16,G93U A108G G120U,-3.31
17,A90C C101G,-3.07
18,G93C C102U,-3.11
19,C88G U129A,-3.06
20,C89U G127C,-1.79
21,G93A U112C,0.676
22,A90C U125A,-1.2
23,G93C U130C,-0.714
24,C89U G135U,-0.983

row,Variant,polymerase ribozyme fitness (log ratio)
1,A90U A118U,-0.274
2,U87A G113C U130A,-2.96
3,C89G C101A,-2.55
4,G93A A105C,-3.13
5,A90G C97U,0.255
6,C89A G117A A121U,-0.932
7,C88U C97A U109G,-6.35
8,U87G A91U,-1.46
9,C89A C114A,-2.6
10,C88G G127C,-2.07
11,A91U U106G,-4.85
12,G93C C98U A121U,1.01
13,G93U C114A,-3.05
14,A91C G127A,-2.15
15,U87C C102U U112A G122A,-0.872
16,U87G U96G C99U,-2.81
17,A90C A121C,0.757
18,A90U C101A,-3.3
19,U92C A121C,1.53
20,C89U G120A U129G,-1.07
21,C89A U112A A121U U131C,0.436
22,G93U C97U,-0.996
23,C88A U129A,-2.21
24,C88A U129G,-1.51

row,Variant,polymerase ribozyme fitness (log ratio)
1,A90U G117C A118C,-3.48
2,C89A G110U U132C,-4.16
3,G93A C101U A118G,-0.63
4,G93C G117U,-2.87
5,C88A C115G G120C C123A,0.0548
6,C88A C101G A119U,-3.66
7,U92A C102G G113C,-6.86
8,A91G C115G,-4.4
9,C89G C97A A100U C114A,-7.31
10,A91U A121U,0.873
11,U87C G113A U133A,-0.981
12,A90C C124U,0.931
13,U87G C115U,-0.742
14,G93U A111G G122A,-1.2
15,U92A G113U,-3.75
16,C88G G110U,-2.67
17,C89A,-1.27
18,C89U,-0.195
19,C89G,-1.19
20,C89G G122A,-3.38
21,C88A G93U G120U,-3.17
22,G93C C101U C104A,-1.95
23,C88A A121U,0.835
24,C88A U106A G128U,-3.15

row,Variant,polymerase ribozyme fitness (log ratio)
1,G93C G128C,-2.25
2,G93U G110A G120U,-4.68
3,U87C U116A A121G,1.1
4,C89G C124U,0.383
5,G93A G113U,-3.19
6,A90G C94U C97A C124A,-0.528
7,A91C A95U C101A,-4.41
8,G93C A95C,-0.938
9,G93C C104U A108G,-2.77
10,C88A C114U,-2.51
11,U92C C102U,-4.04
12,C88U C97A,-4.84
13,C89U G110C,-3.36
14,C89U G110U,-2.22
15,C89A C104A,-4.02
16,C88U U106A U130A,-0.0999
17,C88G A91C,-2.11
18,C88A G113A C124A G135U,-1.79
19,U87C U109C U130C,-5.36
20,G93A C115U,-1.29
21,C89U A90G U112A C123G,1.96
22,A90U G113C,-2.53
23,A90U G113A,-1.1
